Here are results for five sequences from US20110189729.

The data set deals with lambda integrase Int-h/218 h/218 mutant (substitutions not given) (Bacteriophage lambda) (UniProt P03700). Briefly: cell_activity. As to conditions: CHO-DG44.

The sequence “TCTGTTACAGGTCACTAATACCATCTAAGTAGTTGATTCATAGTGACTGCATATGTTGTGTTTTACAGTATTATGTAGTCTGTTTTTTATGCAAAATCTAATTTAATATATTGATATTTATATCATTTTACGTTTCTCGTTCAGCTTTTTTATACTAAGTTGGCATTATAAAAAAGCATTGCTTATCAATTTGTTGCAACGAACAGGTCACTATCAGTCAAAATAAAATCATTATTTGATTTC / GAAATCAAATAATGATTTTATTTTGACTGATAGTGACCTGTTCGTTGCAACAAATTGATAAGCAATGCTTTTTTATAATGCCAACTTAGTATAAAAAAGCTGAACGAGAAACGTAAAATGATATAAATATCAATATATTAAATTAGATTTTGCATAAAAAACAGACTACATAATACTGTAAAACACAACATATGCAGTCACTATGAATCAACTACTTAGATGGTATTAGTGACCTGTAACAGA / GCTGTTACAGGTCACTAATACCATCTATGTAGTTGATTCATATTGTCTGCATATCTTGTGTTTTACAGTATTATCTAGTCTGTTTTTTATCCAAAATCTAATTTATTATATTGATATTTATATCATTTTACGTTTCTCGTTCAGCTTTTTTATACTAACTTG / CAAGTTAGTATAAAAAAGCTGAACGAGAAACGTAAAATGATATAAATATCAATATAATAAATTAGATTTTGGATAAAAAACAGACTAGATAATACTGTAAAACACAAGATATGCAGACAATATGAATCAACTACATAGATGGTATTAGTGACCTGTAACAGC [attP ; attR.a]” showed an activity (% fluorescent cells) (attP x attR.a, with IHF and XIS) of 1.5.
Regarding “TCTGTTACAGGTCACTAATACCATCTAAGTAGTTGATTCATAGTGACTGCATATGTTGTGTTTTACAGTATTATGTAGTCTGTTTTTTATGCAAAATCTAATTTAATATATTGATATTTATATCATTTTACGTTTCTCGTTCAGCTTTTTTATACTAAGTTGGCATTATAAAAAAGCATTGCTTATCAATTTGTTGCAACGAACAGGTCACTATCAGTCAAAATAAAATCATTATTTGATTTC / GAAATCAAATAATGATTTTATTTTGACTGATAGTGACCTGTTCGTTGCAACAAATTGATAAGCAATGCTTTTTTATAATGCCAACTTAGTATAAAAAAGCTGAACGAGAAACGTAAAATGATATAAATATCAATATATTAAATTAGATTTTGCATAAAAAACAGACTACATAATACTGTAAAACACAACATATGCAGTCACTATGAATCAACTACTTAGATGGTATTAGTGACCTGTAACAGA / CTGCTTTTTTATACTAACTTG / CAAGTTAGTATAAAAAAGCAG [attP ; attB]”, the activity (% fluorescent cells) (attP x attB, with IHF, 1.1% without IHF plasmid) is 1.7.
For the setting “attP x attR, with IHF and XIS”, “TCTGTTACAGGTCACTAATACCATCTAAGTAGTTGATTCATAGTGACTGCATATGTTGTGTTTTACAGTATTATGTAGTCTGTTTTTTATGCAAAATCTAATTTAATATATTGATATTTATATCATTTTACGTTTCTCGTTCAGCTTTTTTATACTAAGTTGGCATTATAAAAAAGCATTGCTTATCAATTTGTTGCAACGAACAGGTCACTATCAGTCAAAATAAAATCATTATTTGATTTC / GAAATCAAATAATGATTTTATTTTGACTGATAGTGACCTGTTCGTTGCAACAAATTGATAAGCAATGCTTTTTTATAATGCCAACTTAGTATAAAAAAGCTGAACGAGAAACGTAAAATGATATAAATATCAATATATTAAATTAGATTTTGCATAAAAAACAGACTACATAATACTGTAAAACACAACATATGCAGTCACTATGAATCAACTACTTAGATGGTATTAGTGACCTGTAACAGA / TCTGTTACAGGTCACTAATACCATCTAAGTAGTTGATTCATAGTGACTGCATATGTTGTGTTTTACAGTATTATGTAGTCTGTTTTTTATGCAAAATCTAATTTAATATATTGATATTTATATCATTTTACGTTTCTCGTTCAGCTTTTTTATACTAACTTG / CAAGTTAGTATAAAAAAGCTGAACGAGAAACGTAAAATGATATAAATATCAATATATTAAATTAGATTTTGCATAAAAAACAGACTACATAATACTGTAAAACACAACATATGCAGTCACTATGAATCAACTACTTAGATGGTATTAGTGACCTGTAACAGA [attP ; attR]” registered an activity (% fluorescent cells) of 2.3.
The sequence “GCTGTTACAGGTCACTAATACCATCTACGTAGTTGATTCATATTGTCTGCATATCTTGTGTTTTACAGTATTATCTAGTCTGTTTTTTATCCAAAATCTAATTTATTATATTGATATTTATATCATTTTACGTTTCTCGTTCAGCTTTTTTATACTAAGTTGGCATTATAAAAAAGCATTGCTTATCAATTTGTTGCAACGAACAGGTCACTATCAGTCAAAATATAATCATTATTTGATTTC / GAAATCAAATAATGATTATATTTTGACTGATAGTGACCTGTTCGTTGCAACAAATTGATAAGCAATGCTTTTTTATAATGCCAACTTAGTATAAAAAAGCTGAACGAGAAACGTAAAATGATATAAATATCAATATAATAAATTAGATTTTGGATAAAAAACAGACTAGATAATACTGTAAAACACAAGATATGCAGACAATATGAATCAACTACGTAGATGGTATTAGTGACCTGTAACAGC / CTGCTTTTTTATACTAACTTG / CAAGTTAGTATAAAAAAGCAG [attP.b ; attB]” showed an activity (% fluorescent cells) (attP.b x attB, with IHF, 0.3% without IHF plasmid) of 1.2.
Sequence “CTGCTTTTTTATACTAAGTTGGCATTATAAAAAAGCATTGCTTATCAATTTGTTGCAACGAACAGGTCACTATCAGTCAAAATATAATCATTATTTGATTTC / GAAATCAAATAATGATTATATTTTGACTGATAGTGACCTGTTCGTTGCAACAAATTGATAAGCAATGCTTTTTTATAATGCCAACTTAGTATAAAAAAGCAG / GCTGTTACAGGTCACTAATACCATCTATGTAGTTGATTCATATTGTCTGCATATCTTGTGTTTTACAGTATTATCTAGTCTGTTTTTTATCCAAAATCTAATTTATTATATTGATATTTATATCATTTTACGTTTCTCGTTCAGCTTTTTTATACTAACTTG / CAAGTTAGTATAAAAAAGCTGAACGAGAAACGTAAAATGATATAAATATCAATATAATAAATTAGATTTTGGATAAAAAACAGACTAGATAATACTGTAAAACACAAGATATGCAGACAATATGAATCAACTACATAGATGGTATTAGTGACCTGTAACAGC [attL.a ; attR.a]” yielded an activity (% fluorescent cells) (attL.a x attR.a, with IHF and XIS, PCR verified) of 2.3.
